Measurements taken from US20240398863A1 (ARCE THERAPEUTICS, published 2024).

Assays:
[1] = target: Human C-type lectin-like molecule-1 (CLL-1) on cells (human) (UniProt Q5QGZ9); experiment: flow cytometry histogram on Molm14 AML cells; the bold label in the same panel prints 67.1%
[2] = target: Human C-type lectin-like molecule-1 (CLL-1) on cells (human) (UniProt Q5QGZ9); experiment: flow cytometry histogram on THP-1 AML cells
[3] = target: Human C-type lectin-like molecule-1 (CLL-1) on cells (human) (UniProt Q5QGZ9); experiment: flow cytometry dot plot on Molm14 WT cells, CLL-1_APC_A against CD123_BV421_A (D-Q1: 0.14%, D-Q3: 0.28%, D-Q4: 18.03%); in the Molm14 CLL-1KO pool the same quadrant holds D-Q2: 10.47% and D-Q4: 89.48%
[4] = target: Human C-type lectin-like molecule-1 (CLL-1) on cells (human) (UniProt Q5QGZ9); experiment: flow cytometry histogram on HL60 AML cells
[5] = target: Human C-type lectin-like molecule-1 (CLL-1) on cells (human) (UniProt Q5QGZ9); experiment: flow cytometry histogram on Molm13 AML cells
[6] = target: Human C-type lectin-like molecule-1 (CLL-1) on cells (human) (UniProt Q5QGZ9); experiment: flow cytometry histogram on U937 AML cells
CLL-1-ECD [7] = target: T1, CLL-1-ECD (human, UniProt Q5QGZ9 65-265); experiment: AlphaLISA; column head 'Affinity: Kd (M) by AlphaLISA'
T1 construct: extracellular domain; also called CLL-1-ECD antigen
T1 sequence (looked up): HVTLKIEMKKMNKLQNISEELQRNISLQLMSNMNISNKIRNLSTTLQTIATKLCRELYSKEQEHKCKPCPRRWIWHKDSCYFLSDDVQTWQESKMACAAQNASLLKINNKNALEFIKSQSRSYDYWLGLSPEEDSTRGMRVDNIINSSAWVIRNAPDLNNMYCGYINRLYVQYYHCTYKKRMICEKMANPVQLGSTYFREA
Description: (§1) In order to characterize the antigen binding capacities of anti-CLL-1 scFv-Fc antibodies, an AlphaLISA sandwich assay was set up with Anti-6×His Acceptor beads, Protein A Donor beads, and CLL-1-ECD. By AlphaLISA assay, the Kd values of each anti-CLL-1 scFv-Fc antibody were determined.

[8] = target: T2, Human C-type lectin-like molecule-1 (CLL-1) on cells (human, UniProt Q5QGZ9 1-265); experiment: flow cytometry, overlaid histograms on K562-CLL-1 OFP cells; panel title 'Anti-CLL-1 scFv-Fc Abs_2 nM' (legend paragraph 56 says 0.2 nM); control: 2nd antibody only [B]
T2 construct: whole, on cells; also called CLL-1 antigens; MICL
T2 sequence (looked up): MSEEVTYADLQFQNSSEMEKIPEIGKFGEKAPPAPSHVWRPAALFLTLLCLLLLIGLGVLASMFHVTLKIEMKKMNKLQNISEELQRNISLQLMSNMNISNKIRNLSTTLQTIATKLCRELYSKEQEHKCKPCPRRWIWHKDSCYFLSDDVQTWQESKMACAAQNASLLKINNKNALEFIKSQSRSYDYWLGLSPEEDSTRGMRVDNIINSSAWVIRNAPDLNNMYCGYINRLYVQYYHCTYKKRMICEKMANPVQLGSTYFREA
Description: FIG. 1 illustrates screening of the anti-CLL-1 antibodies disclosed herein by flow cytometry: (A) Representative flow cytometry dot plots. (B) Overlapping histograms. Each scFv-Fc antibody was stained at 0.2 nM with paired K562-CLL-1 and K562 cells, followed by staining with fluorochrome-conjugated 2nd antibody for flow cytometry analysis;
As illustrated in FIGS. 1A-B and 2, purified scFv-Fc antibodies were further assessed by flow cytometry for their binding to CLL-1 antigens of the K562-Luc-CLL-1 transfectant as well as the CLL-1+ AML cell line, U937, MOLM-14 and THP-1. K562 cells, a human erythroleukemic cell line, and Raji-Luc cells, a human B lymphoblastoid cell line, were used as the CLL-1-negative control cell lines. Each scFv-Fc antibody was screened with six cell lines, including K562, K562-CLL-1, U937, MOLM-14, THP-1 and Raji. Although the binding profiles of each clone varied with cell lines tested, the Top 3 clones with stronger binding pattern were selected, and the ranges of binding percentage were 52%˜99% for K562-Luc-CLL-1, 25%˜98% for U937, 6%˜37% for MLOM-14 and 1%-36% for THP-1.

CLL-1-ECD [9] = target: T1, CLL-1-ECD; experiment: AlphaLISA; column head 'Affinity: Kd (M) by AlphaLISA'; clone printed as 56D01, FIG. 3A on the same sheet prints 65D01
Description: as §1

CLL-1-ECD [10] = target: T1, CLL-1-ECD; experiment: AlphaLISA sandwich assay with Anti-6xHis Acceptor beads, Protein A Donor beads and CLL-1-ECD
Description: as §1

anti-human CLL-1-APC antibody (clone REA431)
% positive cells (gate D) [1]: 67.6%
% positive cells (gate D) [2]: 71%
% cells in quadrant D-Q2 (CLL-1 APC+ CD123 BV421+) [3]: 81.5%
% positive cells (gate D) [4]: 74.4%
% positive cells (gate D) [5]: 21.6%
% positive cells (gate D) [6]: 99.3%

B1: anti-CLL-1 scFv-Fc antibody 61H08 (Fc fusion)
VH: EVQLVESGGGLVQPGGSLRLSCAASGFTFDDYGMHWVRQAPGKGLEWVSGIWPSGGNKEYADSVKGRFTISRDNSKNTLYLQMNSLRAEDTAVYYCARLLALTYDYFDYWGQGTLVTVSS
VL: DIQMTQSPSSLSASVGDRVTITCRASQGISSYLAWYQQKPGKAPKLLIYDASTLQSGVPSRFSGSGSGTDFTLTISSLQPEDFATYYCQQSYSTPFTFGQGTKVEIKR
notes: also called anti-CLL-1-61H08
Kd (CLL-1-ECD [7]): 4.9 nM

B2: 59A09 (Fc fusion)
VH: EVQLVESGGGLVQPGGSLRLSCAASGFTFTDYYIHWVRQAPGKGLEWVSMISPSGGGEAYYADSVKGRFTISRDNSKNTLYLQMNSLRAEDTAVYYCARAHDFDDFDYWGQGTLVTVSS
VL: DIQMTQSPSSLSASVGDRVTITCRASQSIRYSLAWYQQKPGKASKLLIYDASTLQSGVPSRFSGSGSGTDFTLTISSLQPEDFATYYCQQYNNSPLTFGQGTKVEIK
notes: anti-CLL-1 scFv-Fc clone; also called anti-CLL-1-59A09; K562-CLL-1 OFP 59A09
binding result [8]: binds

B3: 61A07 (Fc fusion)
VH: EVQLVESGGGLVQPGGSLRLSCAASGFTFSNHWMHWVRQAPGKGLEWVSSISGAGGGKSYADSVKGRFTISRDNSKNTLYLQMNSLRAEDTAVYYCARDESSYAYDGDYWGQGTLVTVSS
VL: DIQMTQSPSSLSASVGDRVTITCRANQSIRNYLNWYQQKPGKAPKLLIYAASTLQSGVPSRFSGSGSGTDFTLTISSLQPEDFATYYCQQNTSSPSTFGQGTKVEIK
notes: anti-CLL-1 scFv-Fc clone; also called anti-CLL-1-61A07; K562-CLL-1 OFP 61A07
binding result [8]: binds

B4: anti-CLL-1 scFv-Fc antibody 65D01 (Fc fusion)
VH: QVQLQQWGAGLLKPSETLSLTCAVYGGSFSGYYWSWIRQPPGKGLEWIGEINHSGSTNYNPSLKSRVTISVDTSKNQFSLKLSSVTAADTAAYYCARSPLQWLDDAFDIWGQGTMVTVSS
VL: QSVLTQPPSVSAAPGQRVTISCSGSSSNIGSNYVSWYQQLPGTAPKLLIYDNNERPSGIPDRFSGSKSATSATLDITGLQTGDEADYFCGTWDNSPSTDWVFGGGTKVTVLG
notes: also called anti-CLL-1-65D01
Kd (CLL-1-ECD [9]): 2.8 nM

B5: anti-CLL-1 scFv-Fc antibody 72C10 (Fc fusion)
VH: EVQLVESGGGLVQPGGSLRLSCAASGFTFSVNAMHWVRQAPGKGLEWVSTISGSDGHKYYADSVKSRFTISRDNSKNTLYLQMNSLRAEDTAVYYCARDVDSEIGDGYHEDIWGQGTLVTVSS
VL: DIQMTQSPSSLSASVGDRVTITCRASQSVTNALNWYQQKPGKAPKLLIYAASNLQSGVPSRFSGSGSGTDFTLTISSLQPEDFATYYCQQTNNSPATFGQGTKVEIKR
notes: also called anti-CLL-1-72C10
Kd (CLL-1-ECD [7]): 1.1 nM
EC50 (read off the curve) (CLL-1-ECD [10]): ~1 nM
